Test results taken from patent US20140105889A1 (published 2014).

T1: human FcγRIIa type R (human, UniProt P12318 36-217)
T1 construct: also called FcgRIIaR; FcγRIIa(R)
T1 chain: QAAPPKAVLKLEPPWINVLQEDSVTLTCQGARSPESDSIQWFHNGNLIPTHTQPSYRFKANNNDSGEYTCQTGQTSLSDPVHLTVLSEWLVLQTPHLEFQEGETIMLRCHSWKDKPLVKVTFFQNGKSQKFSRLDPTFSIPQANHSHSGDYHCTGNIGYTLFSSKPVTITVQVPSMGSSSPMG

T2: human FcγRIIa type H (human, UniProt P12318 36-217)
T2 construct: also called FcgRIIaH; FcγRIIa(H)
T2 sequence: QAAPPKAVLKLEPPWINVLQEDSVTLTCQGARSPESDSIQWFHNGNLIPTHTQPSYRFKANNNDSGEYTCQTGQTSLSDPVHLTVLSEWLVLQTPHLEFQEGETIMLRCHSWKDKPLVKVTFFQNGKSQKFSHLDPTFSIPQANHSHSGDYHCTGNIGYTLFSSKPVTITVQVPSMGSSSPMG

T3: human FcγRIIb (human, UniProt P31994 43-217)
T3 construct: also called FcgRIIb; FcγIIB
T3 sequence: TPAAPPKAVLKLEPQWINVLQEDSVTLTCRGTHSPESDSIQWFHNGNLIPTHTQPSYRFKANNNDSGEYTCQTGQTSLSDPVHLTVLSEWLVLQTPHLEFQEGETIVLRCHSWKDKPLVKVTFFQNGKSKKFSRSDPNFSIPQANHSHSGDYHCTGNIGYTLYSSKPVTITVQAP


How the values were obtained:
Assay in all cases: SPR (Biacore), FcγR over captured antibody; binding amount / that of IL6R-BF648/IL6R-L x100
human FcγRIIa type R = molecular target: T1, human FcγRIIa type R
Description: (§1) According to the following method, relative binding activities were calculated for the results of analyzing interactions with the respective FcγRs.

human FcγRIIa type H = molecular target: T2, human FcγRIIa type H
Description: as §1

human FcγRIIIa type V = molecular target: T4, human FcγRIIIa type V (human, UniProt P08637 17-208, limits assumed)
T4 construct: Allotype V158 was used; also called FcgRIIIaV; FcγRIIIa(V)
T4 sequence (P08637 other isoform, or with tags, fused parts or gaps limits assumed): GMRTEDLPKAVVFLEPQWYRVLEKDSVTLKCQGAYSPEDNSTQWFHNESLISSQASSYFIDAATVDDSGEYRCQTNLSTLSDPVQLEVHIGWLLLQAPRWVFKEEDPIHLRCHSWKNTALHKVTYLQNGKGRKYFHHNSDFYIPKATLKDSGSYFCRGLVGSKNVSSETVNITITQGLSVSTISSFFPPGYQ
Description: as §1

human FcγRIIb = molecular target: T3, human FcγRIIb
Description: as §1

human FcγRIa = molecular target: T5, human FcγRIa (human, UniProt P12314 16-292, limits assumed)
T5 construct: also called FcgRIa; CD64
T5 sequence (P12314 16-292 limits assumed): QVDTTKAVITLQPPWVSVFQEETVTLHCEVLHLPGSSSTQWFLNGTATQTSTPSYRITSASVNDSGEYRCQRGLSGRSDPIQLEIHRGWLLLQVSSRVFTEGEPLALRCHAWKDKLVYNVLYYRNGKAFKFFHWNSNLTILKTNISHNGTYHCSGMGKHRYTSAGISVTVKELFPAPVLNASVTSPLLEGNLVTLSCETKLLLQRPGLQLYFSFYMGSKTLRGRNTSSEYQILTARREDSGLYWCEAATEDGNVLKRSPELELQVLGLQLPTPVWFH
Description: as §1

| relative binding activity (human FcγRIIa type R) | relative binding activity (human FcγRIIa type H) | relative binding activity (human FcγRIIIa type V) | relative binding activity (human FcγRIIb) | relative binding activity (human FcγRIa) | Binder |
| --- | --- | --- | --- | --- | --- |
| 691 % of IL6R-BF648/IL6R-L | 409 % of IL6R-BF648/IL6R-L | 186 % of IL6R-BF648/IL6R-L | 177 % of IL6R-BF648/IL6R-L | 57 % of IL6R-BF648/IL6R-L | IL6R-BP177/IL6R-L (antibody, human IgG1) heavy: QVQLQESGPGLVKPSETLSLTCAVSGHSISHDHAWSWVRQPPGEGLEWIGFISYSGITNYNPSLQGRVTISRDNSKNTLYLQMNSLRAEDTAVYYCARSLARTTAMDYWGEGTLVTVSSASTKGPSVFPLAPSSKSTSGGTAALGCLVKDYFPEPVTVSWNSGALTSGVHTFPAVLQSSGLYSLSSVVTVPSSSLGTQTYICNVNHKPSNTKVDKKVEPKSCDKTHTCPPCPAPDYLGDDSVFLFPPKPKDTLMISRTPEVTCVVVDVSHEDGEVKFNWYVDGVEVHNAKTKPREEQYNSTYRVVSVLTVLHQDWLNGKEYKCKVSNDALPKPIEKTISKAKGQPREPQVYTLPPSRDELTKNQVSLTCLVKGFYPSDIAVEWESNGQPENNYKTTPPVLDSDGSFFLYSKLTVDKSRWQQGNVFSCSVMHEALHNHYTQESLSLSP light: DIQMTQSPSSLSASVGDRVTITCRASQDISSYLNWYQQKPGKAPKLLIYYTSRLHSGVPSRFSGSGSGTDFTFTISSLQPEDIATYYCQQGNTLPYTFGQGTKVEIK |
| 423 % of IL6R-BF648/IL6R-L | 191 % of IL6R-BF648/IL6R-L | 113 % of IL6R-BF648/IL6R-L | 164 % of IL6R-BF648/IL6R-L | 83 % of IL6R-BF648/IL6R-L | IL6R-BP183/IL6R-L (antibody, human IgG1) heavy: QVQLQESGPGLVKPSETLSLTCAVSGHSISHDHAWSWVRQPPGEGLEWIGFISYSGITNYNPSLQGRVTISRDNSKNTLYLQMNSLRAEDTAVYYCARSLARTTAMDYWGEGTLVTVSSASTKGPSVFPLAPSSKSTSGGTAALGCLVKDYFPEPVTVSWNSGALTSGVHTFPAVLQSSGLYSLSSVVTVPSSSLGTQTYICNVNHKPSNTKVDKKVEPKSCDKTHTCPPCPAPDYLGGDSVFLFPPKPKDTLMISRTPEVTCVVVDVSHEDGEVKFNWYVDGVEVHNAKTKPREEQYNSTYRVVSVLTVLHQDWLNGKEYKCKVSNAALPKPIEKTISKAKGQPREPQVYTLPPSRDELTKNQVSLTCLVKGFYPSDIAVEWESNGQPENNYKTTPPVLDSDGSFFLYSKLTVDKSRWQQGNVFSCSVMHEALHNHYTQESLSLSP light: DIQMTQSPSSLSASVGDRVTITCRASQDISSYLNWYQQKPGKAPKLLIYYTSRLHSGVPSRFSGSGSGTDFTFTISSLQPEDIATYYCQQGNTLPYTFGQGTKVEIK |
| 436 % of IL6R-BF648/IL6R-L | 131 % of IL6R-BF648/IL6R-L | 106 % of IL6R-BF648/IL6R-L | 171 % of IL6R-BF648/IL6R-L | 96 % of IL6R-BF648/IL6R-L | IL6R-BP184/IL6R-L (antibody, human IgG1) heavy: QVQLQESGPGLVKPSETLSLTCAVSGHSISHDHAWSWVRQPPGEGLEWIGFISYSGITNYNPSLQGRVTISRDNSKNTLYLQMNSLRAEDTAVYYCARSLARTTAMDYWGEGTLVTVSSASTKGPSVFPLAPSSKSTSGGTAALGCLVKDYFPEPVTVSWNSGALTSGVHTFPAVLQSSGLYSLSSVVTVPSSSLGTQTYICNVNHKPSNTKVDKKVEPKSCDKTHTCPPCPAPDLLGGDSVFLFPPKPKDTLMISRTPEVTCVVVDVSHEDGEVKFNWYVDGVEVHNAKTKPREEQYNSTYRVVSVLTVLHQDWLNGKEYKCKVSNKALPKPIEKTISKAKGQPREPQVYTLPPSRDELTKNQVSLTCLVKGFYPSDIAVEWESNGQPENNYKTTPPVLDSDGSFFLYSKLTVDKSRWQQGNVFSCSVMHEALHNHYTQESLSLSP light: DIQMTQSPSSLSASVGDRVTITCRASQDISSYLNWYQQKPGKAPKLLIYYTSRLHSGVPSRFSGSGSGTDFTFTISSLQPEDIATYYCQQGNTLPYTFGQGTKVEIK |
| 670 % of IL6R-BF648/IL6R-L | 446 % of IL6R-BF648/IL6R-L | 191 % of IL6R-BF648/IL6R-L | 179 % of IL6R-BF648/IL6R-L | 47 % of IL6R-BF648/IL6R-L | IL6R-BP185/IL6R-L (antibody, human IgG1) heavy: QVQLQESGPGLVKPSETLSLTCAVSGHSISHDHAWSWVRQPPGEGLEWIGFISYSGITNYNPSLQGRVTISRDNSKNTLYLQMNSLRAEDTAVYYCARSLARTTAMDYWGEGTLVTVSSASTKGPSVFPLAPSSKSTSGGTAALGCLVKDYFPEPVTVSWNSGALTSGVHTFPAVLQSSGLYSLSSVVTVPSSSLGTQTYICNVNHKPSNTKVDKKVEPKSCDKTHTCPPCPAPDYLGDDSVFLFPPKPKDTLMISRTPEVTCVVVDVSHEDGEVKFNWYVDGVEVHNAKTKPREEQYNSTYRVVSVLTVLHQDWLNGKEYKCKVSNAALPKPIEKTISKAKGQPREPQVYTLPPSRDELTKNQVSLTCLVKGFYPSDIAVEWESNGQPENNYKTTPPVLDSDGSFFLYSKLTVDKSRWQQGNVFSCSVMHEALHNHYTQESLSLSP light: DIQMTQSPSSLSASVGDRVTITCRASQDISSYLNWYQQKPGKAPKLLIYYTSRLHSGVPSRFSGSGSGTDFTFTISSLQPEDIATYYCQQGNTLPYTFGQGTKVEIK |
| 602 % of IL6R-BF648/IL6R-L | 203 % of IL6R-BF648/IL6R-L | 100 % of IL6R-BF648/IL6R-L | 179 % of IL6R-BF648/IL6R-L | 29 % of IL6R-BF648/IL6R-L | IL6R-BP180/IL6R-L (antibody, human IgG1) heavy: QVQLQESGPGLVKPSETLSLTCAVSGHSISHDHAWSWVRQPPGEGLEWIGFISYSGITNYNPSLQGRVTISRDNSKNTLYLQMNSLRAEDTAVYYCARSLARTTAMDYWGEGTLVTVSSASTKGPSVFPLAPSSKSTSGGTAALGCLVKDYFPEPVTVSWNSGALTSGVHTFPAVLQSSGLYSLSSVVTVPSSSLGTQTYICNVNHKPSNTKVDKKVEPKSCDKTHTCPPCPAPELLGDDSVFLFPPKPKDTLMISRTPEVTCVVVDVSHEDGEVKFNWYVDGVEVHNAKTKPREEQYNSTYRVVSVLTVLHQDWLNGKEYKCKVSNKALPKPIEKTISKAKGQPREPQVYTLPPSRDELTKNQVSLTCLVKGFYPSDIAVEWESNGQPENNYKTTPPVLDSDGSFFLYSKLTVDKSRWQQGNVFSCSVMHEALHNHYTQESLSLSP light: DIQMTQSPSSLSASVGDRVTITCRASQDISSYLNWYQQKPGKAPKLLIYYTSRLHSGVPSRFSGSGSGTDFTFTISSLQPEDIATYYCQQGNTLPYTFGQGTKVEIK |
| 570 % of IL6R-BF648/IL6R-L | 226 % of IL6R-BF648/IL6R-L | 125 % of IL6R-BF648/IL6R-L | 177 % of IL6R-BF648/IL6R-L | 39 % of IL6R-BF648/IL6R-L | IL6R-BP179/IL6R-L (antibody, human IgG1) heavy: QVQLQESGPGLVKPSETLSLTCAVSGHSISHDHAWSWVRQPPGEGLEWIGFISYSGITNYNPSLQGRVTISRDNSKNTLYLQMNSLRAEDTAVYYCARSLARTTAMDYWGEGTLVTVSSASTKGPSVFPLAPSSKSTSGGTAALGCLVKDYFPEPVTVSWNSGALTSGVHTFPAVLQSSGLYSLSSVVTVPSSSLGTQTYICNVNHKPSNTKVDKKVEPKSCDKTHTCPPCPAPELLGDDSVFLFPPKPKDTLMISRTPEVTCVVVDVSHEDGEVKFNWYVDGVEVHNAKTKPREEQYNSTYRVVSVLTVLHQDWLNGKEYKCKVSNAALPKPIEKTISKAKGQPREPQVYTLPPSRDELTKNQVSLTCLVKGFYPSDIAVEWESNGQPENNYKTTPPVLDSDGSFFLYSKLTVDKSRWQQGNVFSCSVMHEALHNHYTQESLSLSP light: DIQMTQSPSSLSASVGDRVTITCRASQDISSYLNWYQQKPGKAPKLLIYYTSRLHSGVPSRFSGSGSGTDFTFTISSLQPEDIATYYCQQGNTLPYTFGQGTKVEIK |
| 650 % of IL6R-BF648/IL6R-L | 1670 % of IL6R-BF648/IL6R-L | 3350 % of IL6R-BF648/IL6R-L | 62 % of IL6R-BF648/IL6R-L | 140 % of IL6R-BF648/IL6R-L | IL6R-G1d/IL6R-L (antibody, human IgG1, also called IgG1) heavy: not shown light: DIQMTQSPSSLSASVGDRVTITCRASQDISSYLNWYQQKPGKAPKLLIYYTSRLHSGVPSRFSGSGSGTDFTFTISSLQPEDIATYYCQQGNTLPYTFGQGTKVEIK |
| 614 % of IL6R-BF648/IL6R-L | 368 % of IL6R-BF648/IL6R-L | 143 % of IL6R-BF648/IL6R-L | 175 % of IL6R-BF648/IL6R-L | 43 % of IL6R-BF648/IL6R-L | IL6R-BP186/IL6R-L (antibody, human IgG1) heavy: QVQLQESGPGLVKPSETLSLTCAVSGHSISHDHAWSWVRQPPGEGLEWIGFISYSGITNYNPSLQGRVTISRDNSKNTLYLQMNSLRAEDTAVYYCARSLARTTAMDYWGEGTLVTVSSASTKGPSVFPLAPSSKSTSGGTAALGCLVKDYFPEPVTVSWNSGALTSGVHTFPAVLQSSGLYSLSSVVTVPSSSLGTQTYICNVNHKPSNTKVDKKVEPKSCDKTHTCPPCPAPDYLGDDSVFLFPPKPKDTLMISRTPEVTCVVVDVSHEDGEVKFNWYVDGVEVHNAKTKPREEQDNSTYRVVSVLTVLHQDWLNGKEYKCKVSNAALPKPIEKTISKAKGQPREPQVYTLPPSRDELTKNQVSLTCLVKGFYPSDIAVEWESNGQPENNYKTTPPVLDSDGSFFLYSKLTVDKSRWQQGNVFSCSVMHEALHNHYTQESLSLSP light: DIQMTQSPSSLSASVGDRVTITCRASQDISSYLNWYQQKPGKAPKLLIYYTSRLHSGVPSRFSGSGSGTDFTFTISSLQPEDIATYYCQQGNTLPYTFGQGTKVEIK |
